The target of test [1] is 4-1BB on engineered 4-1BB-expressing effector cells (luciferase reporter assay) (UniProt Q07011). The experiment in a line: cell-based or functional assay.
Test [2] deals with 4-1BB on engineered 4-1BB-expressing effector cells (luciferase reporter assay) (UniProt Q07011 24-255, limits assumed). The experiment in a line: cell-based or functional assay.
Test [3] addresses T1, recombinant mouse 4-1BB protein (mouse, UniProt P20334 24-187).
T1 sequence (looked up): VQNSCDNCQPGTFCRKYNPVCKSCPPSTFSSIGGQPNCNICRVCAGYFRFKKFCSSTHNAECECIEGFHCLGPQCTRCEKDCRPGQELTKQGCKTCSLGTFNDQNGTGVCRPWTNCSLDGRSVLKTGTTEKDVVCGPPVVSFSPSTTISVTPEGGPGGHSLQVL
The experiment in a line: ELISA, plates coated with recombinant 4-1BB, detection with goat α-human Fcγ-HRP.
Procedure: Cross-reactivity was assessed using ELISA. Briefly, plates were coated with recombinant 4-1BB proteins derived from either human, cynomolgus monkey, or mouse. Plates were then washed, blocked, and incubated with bovine serum albumin (BSA), along with a series of known concentrations of α-4-1BB IgGs/MBs. The plate was then washed and incubated with a Goat α-human Fcy-HRP secondary antibody to detect bound IgG/MB. The plates were then washed again and developed with TMB substrate to detect HRP and read at OD 450 nm.

Consider “Urelumab MB (effector-silent α-4-1BB Multabody displaying scFabs based on urelumab)”, for which, in test [1], the EC50 (nM) + Fc (4-1BB agonism, luciferase reporter, with FcγRIIb CHO-K1 cells) was 0.079 nM and the EC50 (nM) - Fc (4-1BB agonism, luciferase reporter, without Fc crosslinking) worked out at 0.087 nM.

B1: NM21 IgG1 (parent IgG of Fab #1) (antibody, V domains shown)
VH: EVQLVESGGGLVQPGGSLRLSCAASGFSFSANYYPCWVRQAPGKGLEWIGCIYGGSSDITYDANWTKGRFTISRDNSKNTVYLQMNSLRAEDTAVYYCARSAWYSGWGGDLWGQGTLVTVSS
VL: DIQMTQSPSSLSASVGDRVTITCQASQSISNRLAWYQQKPGKAPKLLIYSASTLASGVPSRFSGSGSGTDFTLTISSLQPEDFATYYCQSTYYGNDGNAFGTGTKVTVLG
B1: the “EC50 (nM) + Fc (4-1BB agonism, luciferase reporter, with FcγRIIb CHO-K1 cells)” value (from here on “EC50 (nM) + Fc”) in test [2] was 0.258 nM.

B2: effector silent α-4-1BB (AG10058; Fab #3) MB (protein, part only; not given: Fab constants, linkers, ferritin carriers, not shown: another chain or arm of the molecule; a dimerising Fc or GST; large carriers; small tags and cut ends)
VH: EVQLVESGGGLVQPGGSLRLSCAASGFSLSTSGVGVGWIRQAPGKGLEWLALIDWDDDKYYSPSLKSRLTISRDNSKNTLYLQLNSLRAEDTAVYYCARGGSDTVLGDWFAYWGQGTLVTVSS
VL: DIQLTQSPSSLSASVGDRVTITCRASQSVSPYLAWYQQKPGKAPKLLIYDASSLESGVPSRFSGSGSGTDFTLTISSLQPEDFATYYCQQGYSLWTFGQGTKVEIK
modifications: Self-assembled ferritin nanocage (Multabody) made from scFab-hFTL, scFab-N_hFTL and scFc(LLRAL)-C_hFTL fusions, with genes mixed 2:1:1. The letters do not carry this multivalent display.
For the molecule B2, in test [1], the EC50 (nM) + Fc (4-1BB agonism, luciferase reporter, with FcγRIIb CHO-K1 cells) is 0.019 nM and the EC50 (nM) - Fc (4-1BB agonism, luciferase reporter, without Fc crosslinking) amounted to 0.02 nM.

B3: AG10058 IgG (IgG4; parent IgG of Fab #3) (antibody, V domains shown)
VH: B2 VH
VL: B2 VL
notes: also called Fab #3 IgG
As to B3, the “EC50 (nM) + Fc” value in test [2] stood at 0.346 nM. The binding result in test [3] was “binds”.

B4: Urelumab IgG4 (antibody, V domains shown)
VH: QVQLQQWGAGLLKPSETLSLTCAVYGGSFSGYYWSWIRQSPEKGLEWIGEINHGGYVTYNPSLESRVTISVDTSKNQFSLKLSSVTAADTAVYYCARDYGPGNYDWYFDLWGRGTLVTVSS
VL: EIVLTQSPATLSLSPGERATLSCRASQSVSSYLAWYQQKPGQAPRLLIYDASNRATGIPARFSGSGSGTDFTLTISSLEPEDFAVYYCQQRSNWPPALTFGGGTKVEIK
As for B4, in test [2], the “EC50 (nM) + Fc” value turned out to be 0.25 nM and the “EC50 (nM) - Fc (4-1BB agonism, luciferase reporter, without Fc crosslinking)” value is 0.442 nM.

Source of the values: patent publication US20260209370A1 (RADIANT BIOTHERAPEUTICS, published 2026).
